Laboratory results from patent US20220017635A1 (Kyowa Kirin, published 2022).
Values belong to the binder of their own block, whether it stands above or below them.

Tests used:
human EGFR-FLAG-Fc [1] = target: T1, human EGFR-FLAG-Fc (human, UniProt P00533 25-638); test: phage ELISA (scFv) on immobilized human EGFR-Fc
T1 construct: also called human EGFR-Fc
Method: Specifically, it was carried out by adding a phage solution diluted with PBS-T containing 10% Block Ace (manufactured by Dainippon Pharmaceutical Co., Ltd.) to a 96-well immunoplate (NUNC, Inc.) on which an antigen protein was immobilized to allow a reaction to proceed at room temperature for 1 hour, followed by washing with PBS-T, and then, adding an anti-M13 antibody (manufactured by GE Healthcare, Inc.) labeled with horseradish peroxidase diluted with 1% BSA-PBS thereto to allow a reaction to proceed at room temperature for 1 hour.
The confirmation of a clone that specifically recognizes human and monkey EGFR-Fc was carried out by the ELISA method.

monkey EGFR-FLAG-Fc = target: T2, monkey EGFR-FLAG-Fc (monkey, UniProt P55245 25-638); test: phage ELISA (scFv) on immobilized monkey EGFR-Fc
T2 construct: also called monkey EGFR-Fc; not shown: FLAG-Fc added to the C terminus

human EGFR on cells [2] = target: T3, human EGFR on cells (human, UniProt P00533 25-1210); test: flow cytometry on OE21 cells; x axis Alexa Fluor 488-A [C]
T3 construct: also called membrane-associated EGFR on OE21 cells

human EGFR on cells [3] = target: T3, human EGFR on cells; test: flow cytometry on OE21 cells; x axis PE-A [D]
human EGFR-FLAG-Fc [4] = target: T1, human EGFR-FLAG-Fc; test: phage ELISA on immobilized EGFR-Fc (Example 5)

binding result (human EGFR-FLAG-Fc [1]): binds
binding result (monkey EGFR-FLAG-Fc): binds
binding result (human EGFR on cells [2]): binds
B1: E17 (antibody, V domains shown)
VH: QVQLQQWGAGLLKPSETLSLTCALYSGSFSAQDWSWIRQSPEKGLEWIGEIWQGGKTNYNPSLKSRVSISRDNSKNQLSLQLSSVTAADTAVYYCARVDWSYRVFEIWGQGTMVTVSS
VL: not shown
notes: also called anti-EGFR antibody E17

binding result (human EGFR on cells [3]): binds
B2: KME07 (antibody, V domains shown)
VH: QVQLVQSGAEVKKPGSSVKVSCKASGGTFSSFAFGWVRQAPGQGLEWMGEVRPGFGTEILTQNFQDRVTITADESTSTTYMELRSLKSEDTAVYYCARGLLRGGYIENPFEIWGQGTLVTVSS
VL: DIQMTQSPSSLSASVGDRVTITCRASQGISSWLAWYQQKPEKAPKSLIYAASSLQSGVPSRFSGSGSGTDFTLTISSLQPEDFATYFCQQYYNYPYTFGQGTKLEIK
notes: IgG4PE or IgG4PE R409K; also called anti-EGFR antibody KME07

binding result (human EGFR-FLAG-Fc [4]): binds
B3: KME11 (antibody, V domains shown)
VH: QVQLVQSGAEVKKPGSSVKVSCKASGGTLSTYGITWVRQAPGQGFAWMGEIIPSLGIVNYAQKFQGRVTITADESTSTVYMELSSVTYEDTAVYYCAGDELSEGHSEYYHGMDVWGQGTTVTVSS
VL: DIQMTQSPSSLSASVGDRVTITCRASQGISSWLAWYQQKPEKAPKSLIYAASSLQSGVPSRFSGSGSGTDFTLTISSLQPEDFATYFCQQYYNYPYTFGQGTKLEIK
notes: IgG4PE or IgG4PE R409K; also called anti-EGFR antibody KME11; KME1l
